{"source": "patent US6462254", "biological_target": "angiostatin-FLAG-HA (pMB281.1)", "assay": "ECL sandwich assay on 293 cell lysate, biotinylated anti-FLAG M2 capture", "data": [{"substance": "anti-FLAG M2 monoclonal antibody (IBI/Kodak)", "values": [{"measurement": "ECL signal above background (fold above background)", "result": "> 2"}]}]}
